Test: soluble on expression in E. coli; label from the status in PepcDB or PDB records

| Sequence | soluble on expression in E. coli |
| --- | --- |
| SLSSLDAVLSQDLIVADGPAVEVGDSLEVAYTGWLFQNHVLGQVFDSTANKDKLLRLKLGSGKVIKGWEDGMLGMKKGGKRLLIVPPACAVGSEGVIGWTQATDSILVFEVEVRRVKFAR | soluble |
| SLTTSTALVLDINNANLDQQQAFAITAANRDEILQAASSIRLGDVMSVHDFGRSATDASYLDTMLEDVKVIDQKESGKQLNEIAFLSRQISDSVQPSDLQRVISRIPIIGFVISRLTFMQRRALNRFDSVKGQMDILADGISSISTGYLEQNVKLDAMYNDVLADIRAQGINIVASKLVIDSIEGELQTRQEEFKKNKTNTLLSIEINDIQYQLDTLKKRRKDMISMQQKSFDDLTMLRMMQQNNLALVDKFRSVEELTLPAAKRGHLIVDALEKQNAGVKLIEAIDDATNALALRQAELVKDNTIRIAKQSHRSVYDAKTLDRISTLMNEAIAEAHAIHKSNSDGHLALEKRAIEWQEERRQRLINGMGKNKLSNH | not soluble |
| SLTTTEVVMENVTAFWEEGFGELFEKAKQNNNNRKTSNGDDSLFFSNFSLLGTPVLKDINFKIERGQLLAVAGSTGAGKTSLLMMIMGELEPSEGKIKHSGRISFCSQFSWIMPGTIKENIIFGVSYDEYRYRSVIKACQLEEDISKFAEKDNIVLGEGGITLSGGQRARISLARAVYKDADLYLLDSPFGYLDVLTEKEIFESCVCKLMANKTRILVTSKMEHLKKADKILILHEGSSYFYGTFLELYHYPADRFVAGFIGSPKMNFLPVKVTATAIDQVQVELPMPNRQQVWLPVESRDVQVGANMSLGIRPEHLLPSDIADVILEGEVQVVEQLGNETQIHIQIPSIRQNLVYRQNDVVLVEEGATFAIGLPPEDCHLFREDGTACRRLHKEPGV | soluble |
| SLTTTEVVMENVTAFWEEGGTPVLKDINFKIERGQLLAVAGSTGAGKTSLLMMIMGELEPSEGKIKHSGRISFCSQFSWIMPGTIKENIIFGVSYDEYRYRSVIKACQLEEDISKFAEKDNIVLGEGGITLSGGQRARISLARAVYKDADLYLLDSPFGYLDVLTEKEIFESCVCKLMANKTRILVTSKMEHLKKADKILILHEGSSYFYGTFSELQNLQPDFSSKLGPSAQLKKKLQALKKKNAQLKWKLQALKKKLAQ | soluble |
| SLVNMNVPDMILYNGKITTLDPSQPEVSAIAITDGLITAVGGDELLNSATEKTKKIDLKRKRAIPGLNDSHIHVIRGGLHYNMELRWEGVPSITIALEMLKEQARRTPAPQWVRVVGGWSEFQFKERRMPTLEEINAVSEDTPVFVLHLYDRALVNRAGLRALGYTKDTPDPPGCLIERDKRGNPTGLLIANPNASILYSSLGKAPILNFDDQINSTRHFMRELNRLGITSAIDAGGGFQNYPDDYRVVEHLAEKEQLTLRIAYNLFTQNPNHEYEDFASWAKIVSPGQGNDKYKMNGAGEMLVFSAADFEKFQMPRPELATMMEADLKKVISLLVENRWPFRLHATYDESITRFLNVFEEVNKEIPFNGLRWWFDHAETISDRSMERVKALNGGIAIQDRMAFQGEYFVDLYGKEAAKRTPPIYRMLDLGIPVGAGSDATRVSSYNPWVALYWMVAGKTIGGLSIYDEKNKLDRKVALELYSKGSAWFSGDEGKKGTLAVGQFADIAVLSADYFTVPEEEIKDLESLLTIMGGQVVYGNDEFKNLSPELPPASPDWSPTGVYGYGGANLAHTILSHDSHDNKLHSCSNPLHQHTHTVIGKDGTKWGIGCTCFAF | soluble |
| SLVTVSDVKQYHFCKAIPWINYVMGYREPSTFSMEEGKKISYEEVVKSLNLTTPVKYEVCLSYNGLSGCIDILAGDRKYTVVEVKAFKRGNFSHFRYQLLAYAYLVRKRLGIVERAILVMEGKKVLEIEPTEEHYRYIENVVKKIEEIVNSEKLPAVNVEKCDFCQYRRICPVSVWS | not soluble |
| SLWYYLFKYIFMGPLFTLLGRPKVEGLEYIPSSGPAILASNHLAVADSFYLPLVVRRRIWFLAKSEYFTGTGLKGWINRWFYSVSGQVPIDRTNADSAQGALQTAVVLLGQGKLLGMYPEGTRSPDGRLYKGKTGLARLALHTGVPVIPVAMIGTNVVNPPGRKMLRFGRVTVRFGKPMDFSRFEGLAGNHFIERAVTDEVIYELMGLSGQEYVDIYAASVKDGRNAGGAGANPNSTDAARIPETAAEG | not soluble |
| SLYATPIGYADTRFETAADAPRQGVETPYAANVQVYESFRGGLVGLEPDDRVVVVWWADDADRDVLAVRDGDRGVFTTRSPARPNPVCITPCELLAVDAADGTLAIRGWIWRTARRSWI | soluble |
| SMCEKVISVGQTVITKHRNTRYYSCRVMAVTSQTFYEVMFDDGSFSRDTFPEDIVSRDCLKLGPPAEGEVVQVKWPDGKLYGAKYFGSNIAHMYQVEFEDGSQIAMKREDIYTLDEELPKRVK | soluble |
| SMKAIVVINLVKINKKIIPDKIYVYRLFNDPEEELQKEGYSIYRLAYENVGIVIDPENLIIATTKELEYEGEFIPEGEISFSELRNDYQSKLVLRLLKENGIGEYELSKLLRKFRKPKTFGDYKVIPSVEMSVIKHDEDFYLVIHIIHQIQSMKTLWELVNKDPKELEEFLMTHKENLMLKDIASPLKTVYKPCFEEYTKKPKLDHNQEIVKYWYNYHIERYWNTPEAKLEFYRKFGQVDLKQPAILAKFASKIKKNKNYKIYLLPQLVVPTYNAEQLESDVAKEILEYTKLMPEERKELLENILAEVDSDIIDKSLSEIEVEKIAQELENKIRVRDDKGNSVPISQLNVQKSQLLLWTNYSRKYPVILPYEVPEKFRKIREIPMFIILDSGLLADIQNFATNEFRELVKSMYYSLAKKYNSLAKKARSTNEIGLPFLDFRGKEKVITEDLNSDKGIIEVVEQVSSFMKGKELGLAFIAARNKLSSEKFEEIKRRLFNLNVISQVVNEDTLKNKRDKYDRNRLDLFVRHNLLFQVLSKLGVKYYVLDYRFNYDYIIGIDVAPMKRSEGYIGGSAVMFDSQGYIRKIVPIKIGEQRGESVDMNEFFKEMVDKFKEFNIKLDNKKILLLRDGRITNNEEEGLKYISEMFDIEVVTMDVIKNHPVRAFANMKMYFNLGGAIYLIPHKLKQAKGTPIPIKLAKKRIIKNGKVEKQSITRQDVLDIFILTRLNYGSISADMRLPAPVHYAHKFANAIRNEWKIKEEFLAEGFLYFV | soluble |
| SMPDEVPLDEQCERLPYDASKWEFARERLKLGKSLGRGAFGKVVQASAFGIKKSPTCRTVAVKMLKEGATASEYKALMTELKILTHIGHHLNVVNLLGACTKQGGPLMVIVEYCKYGNLSNYLKSKRDLFFLNKDAALHMEPKKEKMEPGLEQGKKPRLDSVTSSESFASSGFQEDKSLSDVEEEEDSDGFYKEPITMEDLISYSFQVARGMEFLSSRKCIHRDLAARNILLSENNVVKICDFGLARDIYKNPDYVRKGDTRLPLKWMAPESIFDKIYSTKSDVWSYGVLLWEIFSLGGSPYPGVQMDEDFCSRLREGMRMRAPEYSTPEIYQIMLDCWHRDPKERPRFAELVEKLGDLL | soluble |
| SMPVRRVRVVKQEAGGLGISIKGGRENRMPILISKIFPGLAADQSRALRLGDAILSVNGTDLRQATHDQAVQALKRAGKEVLLEVKFIREVNTVV | soluble |
| SMQPPIAKPGETWILQAKRSDEFNVKDATKWNFQTENYGVWSWKNENATVSKGKLKLTTKRESHQRTFWDGCNQQQVANYPLYYTSGVAKSRATGNYGYYEARIKGASTFPGVSPAFWMYSTIDRSLTKEGDVQYSEIDVVELTQKSAVRESDHDLHNIVVKNGKPTWMRPGSFPQTNHNGYHLPFDPRNDFHTYGVNVTKDKITWYVDGEIVGEKDNLYWHRQMNLTLSQGLRAPHTQWKCNQFYPSANKSAEGFPTSMEVDYVRTWVKV | soluble |
| SMRSGSSMKEEPLGSGMNAVRTWMQGAGVLDANTAAQSGVGLARAHFEKQPPSNLRKSNFFHFVLALYDRQGQPVEIERTAFVGFVEKEKEANSEKTNNGIHYRLQLLYSNGIRTEQDFYVRLIDSMTKQAIVYEGQDKNPEMCRVLLTHEIMCSRCCDKKSCGNRNETPSDPVIIDRFFLKFFLKCNQNCLKNAGNPRDMRRFQVVVSTTVNVDGHVLAVSDNMFVHNNSKHGRRARRLDPS | soluble |
| SMSDESVYKVLLLGAPGVGKSALARIFGGVEDGPEAEAAGHTYDRSIVVDGEEASLMVYDIWEQDGGRWLPGHCMAMGDAYVIVYSVTDKGSFEKASELRVQLRRARQTDDVPIILVGNKSDLVRSREVSVDEGRACAVVFDCKFIETSAALHHNVQALFEGVVRQIRLRRDSKEA | soluble |
| SMSEATPCIKAISPSEGWTTGGATVIIIGDNFFDGLQVVFGTMLVWSELITPHAIRVQTPPRHIPGVVEVTLSYKSKQFCKGAPGRFVYTALNEPTIDYGFQRLQKVIPRHPGDPERLPKEVLLKRAADLVEALYGMPHNNQEIILKRAADIAEALYSV | soluble |
| SNADDYTAGKEYVELSSPVPVSQPGKIEVVELFWYGCPHCYAFEPTIVPWSEKLPADVHFVRLPALFGGIWNVHGQMFLTLESMGVEHDVHNAVFEAIHKEHKKLATPEEMADFLAGKGVDKEKFLSTYNSFAIKGQMEKAKKLAMAYQVTGVPTMVVNGKYRFDIGSAGGPEETLKLADYLIEKERAAAKK | soluble |
| SNAEELIEIREARMDDLDTIAKFNYNLAKETEGKELDMDVLTKGVKALLLDERKGKYHVYTVFDKVVAQIMYTYEWSDWRNGNFLWIQSVYVDKEYRRKGIFNYLFNYIKNICDKDENIVGMRLYVEKENINAKATYESLNMYECDYNMYEYEVIHS | soluble |
| SNAMAKNKLLRMDNVSIVVESLDNAISFFEEIGLNLEGRANVEGEWAGRVTGLGSQCVEIAMMVTPDGHSRIELSRFLTPPTIADHRTAPVNALGYLRVMFTVEDIDEMVSRLTKHGAELVGEVVQYENSYRLCYIRGVEGILIGLAEELGNK | soluble |
| SNAMANIKIRQETPTAFYIKVHDTDNVAIIVNDNGLKAGTRFPDGLELIEHIPQGHKVALLDIPANGEIIRYGEVIGYAVRAIPRGSWIDESMVVLPEA | soluble |
| SNAMATKLVIAIVQDKDANYLSDQFIDQNVRATKLSTTGGFLQSGNTTFMIGIEEERVPEVLEIIKKASHTREEFMTPSVNMDVNMEGTTAYPIKVQVGGATVLVLPVDQFERF | soluble |
| SNAMKILLIGASGTLGSAVKERLEKKAEVITAGRHSGDVTVDITNIDSIKKMYEQVGKVDAIVSATGSATFSPLTELTPEKNAVTISSKLGGQINLVLLGIDSLNDKGSFTLTTGIMMEDPIVQGASAAMANGAVTAFAKSAAIEMPRGIRINTVSPNVLEESWDKLEPFFEGFLPVPAAKVARAFEKSVFGAQTGESYQVY | soluble |
| SNAMKMSELEKMLKGEHFDGASAEIEALRSQAGRLKLEINQSLDEAERYALQRELFGHLGHKSCVQPPFHCEFGKTIRIGDHTFINMNVVMLDGAPITIGDHVLIGPSTQFYTASHSLDYRRRQAWETICKPIVIEDDVWIGGNVVINQGVTIGARSVVAANSVVNQDVPPDTLVGGTPARILRSLKDPAESMAE | soluble |
| SNAMSTHVTFDYSKALSFIGEHEITYLRDAVKVTHHAIHEKTGAGNDFLGWVDLPLQYDKEEFARIQKCAEKIKNDSDILLVVGIGGSYLGARAAIEMLNHSFYNTLSKEQRKTPQVLFVGQNISSTYMKDLMDVLEGKDFSINVISKSGTTTEPALAFRIFRKLLEEKYGKEEARKRIYATTDKARGALKTLADNEGYETFVIPDDVGGRFSVLTPVGLLPIAVSGLNIEEMMKGAAAGRDDFGTSELEENPAYQYAVVRNALYNKGKTIEMLINYEPALQYFAEWWKQLFGESEGKDQKGIFPSSANFSTDLHSLGQYVQEGRRDLFETVLKVGKSTHELTIESEENDLDGLNYLAGETVDFVNTKAYEGTLLAHSDGGVPNLIVNIPELNEYTFGYLVYFFEKACAMSGYLLGVNPFDQPGVEAYKKNMFALLGKPGFEELKAELEERLK | soluble |

Source: the DeepSol protein solubility set
